# B1: gp40 (native 40 kDa glycoprotein of Cryptosporidium parvum) (other)
# chain: DVPVEGSSSSSSSSSSSSSSSSSSSTSTVAPANKARTGEDAEGSQDSSGTEASGSQGSEEEGSEDDGQTSAASQPTTPAQSEGATTETIEATPKEECGTSFVMWFGEGTPAATLKCGAYTIVYAPIKDQTDPAPRYISGEVTSVTFEKSDNTVKIKVNGQDFSTLSANSSSPTENGGSAGQASSRSRRSLSE
# modifications: native glycoprotein: O-linked glycans with terminal α-linked GalNAc on Ser/Thr
# notes: Native protein from oocysts, sporozoites, shed proteins or HPA-purified lysate; also called 40,000 Mr peptide; 40 kDa band
# Experiments:
# [1] = target: T1, Glycine max agglutinin (Glycine max, UniProt P05046 33-285, biotinylated); test: biotinylated lectin blot of shed proteins
# T1 construct: Lectin; also called SBA
# From the text: (§1) In order to determine the nature of the carbohydrates present, SP were probed with a panel of biotinylated lectins of varying sugar specificity (Table 1).
# [2] = target: T2, Ulex europeus agglutinin-1 (Ulex europeus, UniProt P22972 1-243, biotinylated); test: biotinylated lectin blot of shed proteins
# T2 construct: Lectin; also called UEA-1
# T2 sequence: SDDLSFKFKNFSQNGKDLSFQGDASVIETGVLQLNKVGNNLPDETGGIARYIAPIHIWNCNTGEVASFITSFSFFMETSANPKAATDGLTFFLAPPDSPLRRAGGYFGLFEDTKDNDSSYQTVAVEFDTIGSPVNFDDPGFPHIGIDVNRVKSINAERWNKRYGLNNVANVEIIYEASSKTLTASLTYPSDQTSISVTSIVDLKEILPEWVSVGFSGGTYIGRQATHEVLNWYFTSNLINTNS
# From the text: as §1
# T1 sequence (P05046 33-285 limits assumed): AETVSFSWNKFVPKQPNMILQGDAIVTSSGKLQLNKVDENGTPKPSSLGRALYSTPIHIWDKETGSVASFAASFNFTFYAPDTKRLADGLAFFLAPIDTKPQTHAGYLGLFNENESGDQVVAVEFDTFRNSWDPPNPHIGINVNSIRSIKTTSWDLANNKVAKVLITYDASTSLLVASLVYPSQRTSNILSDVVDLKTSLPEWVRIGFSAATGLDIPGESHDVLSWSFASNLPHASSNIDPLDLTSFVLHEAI
binder,measurement,setting,value
B1,binding result,[1],binds
same,binding result,[2],binds
